Laboratory results: CN114133451A (HANGZHOU MEDICAL COLLEGE, dated 2022)

Target: T1, 重组弓形虫毒力因子ROP18 (Toxoplasma gondii, UniProt Q2PAY2 1-554)
T1 construct: also called 弓形虫棒状体蛋白18; rhoptry protein 18; not shown: vector-derived tag of pET28a (fusion protein purified on Ni-NTA)
T1 sequence (looked up): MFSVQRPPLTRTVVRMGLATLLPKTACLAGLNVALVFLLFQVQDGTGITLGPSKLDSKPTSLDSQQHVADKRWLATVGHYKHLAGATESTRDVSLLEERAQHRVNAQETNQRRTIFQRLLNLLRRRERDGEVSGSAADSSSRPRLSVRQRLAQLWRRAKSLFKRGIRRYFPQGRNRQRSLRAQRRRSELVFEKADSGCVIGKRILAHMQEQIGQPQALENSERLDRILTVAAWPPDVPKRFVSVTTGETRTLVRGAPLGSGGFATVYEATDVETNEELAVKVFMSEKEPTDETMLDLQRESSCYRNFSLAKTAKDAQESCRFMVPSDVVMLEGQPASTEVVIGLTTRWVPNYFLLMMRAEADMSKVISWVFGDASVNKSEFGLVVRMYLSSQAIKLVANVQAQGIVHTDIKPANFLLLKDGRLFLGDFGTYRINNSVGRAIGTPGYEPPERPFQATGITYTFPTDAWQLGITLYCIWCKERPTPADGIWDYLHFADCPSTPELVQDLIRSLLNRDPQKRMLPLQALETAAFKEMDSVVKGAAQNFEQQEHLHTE
Assay: SPR, Biacore T100, 1:1 binding fit

B1: 弓形虫毒力因子ROP18纳米抗体22号克隆株 (VHH)
VHH: QVQLVESGGGSVQAGGSLRLSCVASRYTYTYSTYCLGWFRQAPGKEREEIAIIDSDGGARYADSVKGRFTISRDNAKSTLYLHMNSLKPDDTAMYSCAAGRPAPSLGYKCMYNSRHKGTLVTVSS
notes: also called 毒力因子纳米抗体; pMECS-ROP18-22; not shown: tag from the pMECS vector (purified on a nickel column, detected with anti-His a)
Kd: 2.72 nM
